Key:
[1] = test system: T1, C[n+]1ccc(-c2cc[n+](C)cc2)cc1; test: H2 evolution assay, gas chromatography; type: biochemical, Volvox carteri; settings: electron donor, methyl viologen reduced in situ by sodium dithionite; anaerobic
T1 construct: cDNA-derived, N-terminal 6xHis tag with GGG linker; sense cloning primer encodes tag then MDELDKP; tag removal not mentioned

[2] = test system: T2, C[n+]1ccc(-c2cc[n+](C)cc2)cc1; test: H2 evolution assay, gas chromatography; type: biochemical, Volvox carteri; settings: electron donor, methyl viologen reduced in situ by sodium dithionite; anaerobic
T2 construct: cDNA-derived, N-terminal 6xHis tag with GGG linker; sense cloning primer encodes tag then KCTSAV (no start Met, N-terminus probably truncated); maturation possibly incomplete

| Substance | Km [1] | Km [2] |
| --- | --- | --- |
| HYDA1 (Volvox carteri f. nagariensis) | 2760 µM | – |
| HYDA2 (Volvox carteri f. nagariensis) | – | 2820 µM |

Reference: publication PMC4416025, “Characterization of Hydrogen Metabolism in the Multicellular Green Alga Volvox carteri” (PLoS ONE, 2015)
